Drawing on PMC10899635 (2024), this text covers Kd for three molecules.

B1: recombinant Q586B2 protein (natural protein)
chain: MPNLVVTATFSPPAFSIVGSPLREDTIKHMEERIPTVLSTALSRSREPSYFVHSKNPESWKMELSQHFCDELHRAAVSLVIIECLDAEGWVLRTSSSSQDTNEGKCCIKFYFTRS
B2: Nb39 (VHH)
VHH: QVQLQESGGGLVQPGGSLRLSCTASGSIFSGYAMGWYRQAPGKQRELVAGITSGGSTIYAGSVKGRFTISRDNAKNTVYLQMNSLKPEDTAVYYCKNGTYYSARDYWGQGTQVTVSS
B3: Nb27 (VHH)
VHH: QVQLQESGGGLVQPGGSLRLSCTTSRSILSIYAMGWYRQAPGKQRELVAVITSGGSTYYADSVKGRFTISRDNAKNTLYLQMNSLKPEDTALYYCARGGYGTSPQPSWGQGTQVTVSS

Experiment [1] deals with B1.

The Kd is the concentration at which binding is half-saturated. B1: the values for the Kd with Nb34 and with Nb36 were 36.7 nM and 11.3 nM, respectively.
On to B2, for which the dissociation constant Kd in experiment [1] turned out to be 49.9 nM.
Still for that read-out and setting: then B3, with 52 nM.
